The results in this text go back to publication PMC12302650.

Experiment [1] deals with GDP-tubulin (biotinylated α/β-tubulin heterodimer with GDP-bound β-tubulin) (UniProt Q71U36). Briefly: pull-down; supernatant depletion at equilibrium, same assay as for GTP-tubulin but with bead-bound GDP-tubulin; BuGZ construct (or mEGFP control) in solution; fit with Equation S2 for wild-type BuGZ.
For experiment [2] the target is unchanged.
The target of experiment [3] is GTP-tubulin (biotinylated α/β-tubulin heterodimer with GTP-bound β-tubulin) (UniProt Q71U36). Briefly: pull-down; supernatant depletion at equilibrium; varying concentrations of biotinylated GTP-tubulin on streptavidin-coated magnetic beads; BuGZ construct (or mEGFP control) in solution, BuGZ 1.19 μM; 4 °C; nocodazole present; depletion from the supernatant measured by immunoblotting. (In general: Immunoblotting shows a protein as a band on a membrane.)

What is called Kd is the constant that tells how readily two partners part at equilibrium. “BuGZ-ΔGLEBS (from UniProt Q7ZXV8 1-452) (natural protein)”: the Kd was found to be 54.2 nM in experiment [1] and 408 nM in experiment [3]. Moreover, the GTP α-32P incorporation into GDP-tubulin at equilibrium, increase relative to controls in experiment [2] is 57.4%.
